# Experiment: soluble on expression in E. coli; label from the status in PepcDB or PDB records
row,Sequence,soluble on expression in E. coli
1,MGHHHHHHSHMAYNKEEKIKSLNRMQYEVTQNNGTEPPFQNEYWDHKEEGLYVDIVSGKPLFTSKDKFDSQCGWPSFTKPIEEEVEEKLDTSHGMIRTEVRSRTADSHLGHVFNDGPGPNGLRYCINSAALRFVPKHKLKEEGYESYLHLFNK,soluble
2,LRSVFVSGFPRGVDSAQLSEYFLAFGPVASVVMDKDKGVFAIVEMGDVGAREAVLSQSQHSLGGHRLRVRPREQKEFQSPASKSPKG,soluble
3,MGSDKIHHHHHHAAIPISVTKGPDGIKIHCLNSANNPLLGSPAYKNVRIVELEKVPFFQRINNIRKLEMNDDYLFVQTSEKLYTYTLNGELMAEIGRKGEREDDYSELSTFYIDNKKKQITIIDGVQNKLINYNFWGNYMFTDTISEGAFKWCYQTLLINNNQLLNYHGMSMDNTEPYSLFDLTKKEVIKRYFSYQPITLGNYVYPFSWHPMTRADKDIDVIMPLCDTVYTYSAASSSFQPKYIIEMTQKMAPKNKIRKNTPSYSGDLLKLDQQGYFTGFDGIYETDTKILLQYMYGITLGYFLFDKYTKTGSFYLYSQNDKGKTFPFNVIVHSYKNEFVAFGKGKELRSLTHIKDKKVREKIESLGDNSACLIFYELE,not soluble
4,GPGSMDESNRVPTGEAPSDEPPLKVRRHEGGHGELRETSSGDTNPQGATLFIRCTSIHGRGELLNGFISEHREALGVAKWYNVAGDESDGRCVPTLRTDAPFECVYVRSSRKPYFLLEFNEKGDVAKKFVEKLVGLRNTLYKGSPVFVEVAKGGLTVATERLKLEKRDAARRSATAVPLSFSSDKPTGPTAFVPRAVRKR,soluble
5,AIAFRHTLSVDPSEQLSQDFADPVTDSGYESDEEAAAAATASLSGEEAALWNLVDPQQRLIFVLDGPAAQTLRVKRTGNLERQVVNIHRLPLERAPTVATSLLAATRPQHLVVALRTIEPHQAAAILTSTSYPSLSNVENASQVLVLANDLVQIDDPLLRPLWSDEGTQQNRIQLRWVETGCIGGITAALLAAGCWLRIPVLALLAVEDDDGPSPATLEALLLAAERFGCFTRADWEIRMPNLRQLLAKRQLLYI,soluble
6,MFKRVLIANRGEIAVRAIRACRELGLKTVAIYSEADKNSLHVELADEAICIGPPDPSKSYLDIPRIMSALEVSKADAVYPGYGFLSENPKFAEIVEKSGAKFIGPRSEVLAKIGDKVLAKKVAKEVGLPLVPGSDEPLEFSEAVKLASKIGYPVVIKAAAGGGGRGIRIIRDEKELREKFPLAKKEAESAFGDGRLYIEKYVINPKHIEFQVIADEHGNVYVLGERECSIQRRHQKLIEEAPSVSVSEEKRKEISEKVAEFCKRLGYTSAGTVEFLMDEEGNFYFMEMNGRIQVEHPVTEMVTGVDIVKLQLIAAMGEEIKLEKVETNGFAIEFRINAEDPVTFIPSPGQVEKLILPGGPGVRVDTHLYQGYTVPPYYDSLLAKIIVWGNTRQEAIARGKRALGELKIEGKGLKVNTEFHLRVLDQKEFIEGKHDITFVERIMV,soluble
7,MTITSGIDVGTGAIKVVVFEVDGDQERCLGKRVERVRQRDPLKLAGDIYDDLLRETGLARADVAYCATTGEGESLTFHTGHFYSMTTHARGAIYLNPGSRAVLDTGALHGRAIRMDERGKVLAYKMTSQCASGSGQFLENIARYLGIAQDEIGSLSQRADNPEKVSGICAVLAETDVINMVSRGISSPNILRGIHESMADRLAKLLKTLGSLDGTVQMTGGLALDAGLVEAMKDAVVKAKVDVAIESHPDAIYAGAIGAALWGAFRHKRLADMAHAA,not soluble
8,MDGIRVYIETFGCTFNQADSEIMAGVLREEGAVLTGIDDADVIIINTCYVKHPTEHKVINRIKKIQETYPEKGLVVAGCMVEIDPSKLEAISGDASWLGPHQLRRAPQAVRAASNGLVERITGFTSDVKVKVPRVRSNPLIHIIPICEGCNGSCSYCCTRFARGRIQSYPSDLIISEAREAVASGCREIQLTAQDTAAYGVDTGEKLSDIIKGISGIPGNFRIRVGMMHPASVLRDLDGLVEAFKSEKVYSFLHLPVQSGSDSVLADMERGHTVDEFRMIVERFRSEIPDISIATDIIVGYPTEEREDFMDTCSLLEEVKPSFIHLSKYRHRPRARSSSLDEIDFRELRRRSRALEELKMRITEEENRRLVGSFQEILVVERGRKGGFIGRTGSYIPVVTETGEPGSFRRVRIRDATGTYLLADLEHHHHHH,soluble
9,MGSDKIHHHHHHWARTVWPRLYWFVEGKLYRWLQSFIAYWGYTAGYDVYEYGDDVTTYYRDERVLMMCNHQSTADVPTLMTVLQNKGVASRKTLWLMDVMFRWTPFGIIGNNHGDYFIQQGKATRDKELIRLKKHLHDVFWDRDRRWVILFPEGGFYYKRVESSQSYGKKNGFPHLLYTTLPRMGAVQAILEEVGPRTEDSDEPRERSNSKLKLLQDTVGAIREKKYVKGE,not soluble
10,MGSDKIHHHHHHMATLYLIEQGAEIGCDGERIVVRRAGEIIGSVPLVKVDDIVIFGNIGISTPAIKRLLDRSIEVTFMTVDGSYQGRLVGQVTAHVALRQAQYACAADSDRTLRLAQSFVEGKLRNQRALLQRFSRNRATPPAEALAAADDLDAYIKRVRRTTRLSALLGVEGSATARYFAGLRSLIEPEWDFRSRQRRPPPDPVNLLLSFGYTLLTHKTLGAVQAAGFDPYLGFLHSLDYGRPSLALDLMEEFRPLLIDSLVVRVCNDGRLRLEHFQPGDEARPVIITDEGKRAFLTAFEERMRTEATHPEGADSGPGKVTYQRCIALQARRLARVIRGQQERYEPFTAR,not soluble
11,MIYSMTAFAHLELKKEWGNAVWEMRSVNQRFLETYFRLPEQFRHLEMSLRERLRSALTRGKVECSLRIELTNSQDKELSLNKDYAEKVIGSLQTLQALAGGGQINLVDLLRYPGVVDSQTQDLDQIGQDLCAGFEEILADFIAMRAREGANLQQLIQQRLDSISKIATQVQAQMPAILQWQKEKLQQRFDELNLQLESQRLEQEIVLTAQRVDVAEELDRLQLHVKETMAILQRGGAVGRKLDFMMQELNRESNTLASKSINADVTNSAVELKVLIEQMREQIQNLE,not soluble
12,MGSDKIHHHHHHMSICIKDQIQNMNIVIGCTVGCAYCYARNNVKRWHMIDDFAAPEFFPGKLKMMEKKRPQNFLLTGMSDLSGWKPEWRNVVFAKIRENPQHQFLFLTKRPDLLDFDTDLENAWFGVTVTRKAELWRIDALRKNVRAKHYHVTFEPLFDDPGTVDLSGINWIVVGTMTGAQSRKIHTEPEWAWSLADQAHKLGIPVFMKEDIVPIIGDENMIQEMPEEFNKVLEVQKSWKK,not soluble
13,MVSVSVVIATLKPRDEIEAIQCLEDQTFDDFEVIVCDKSPVTRARNEGIRQSSSDKIVFLDDDSRPQPGYLEKANDVLETEAAYAGRTIHPVDDVFARHFTAHYDWGGDPCYVDHFWGCNMGVHRDVFKTVGGWDEEMGWGHEEKELARRVRSEFDIRYDPELVVDHPYASSITDYWKKQYKLETKSPYYWSKCNVSRADQLKNIFCETFDPLNYVRITPVATMIEAGSTVAKTAGRLRGFLDHTHHEEGRGGVPDIDRPSQSPERSGLEHHHHHH,not soluble
14,MGSDKIHHHHHHMITNQKLKKSLEEIKNITSFDAILYSAKGKHLTGTVEEPEHSDIFVKEFIVSEEDVREKNDAIAFAVEIDSELEYVLVMFCPYTSENLVIGRMAVCQLRTLVLGESERYDRNNFIQNILLGNMLGSDIINRAKKLHIENRKRVVYVIDTGKNSNEIAVELAKNLADIRSGDFVVAMDEHNVVLVKDVEDIDSPKLQEKLSSIAGSLVDNLLAEAMIKVRVGYGNPTDVLPKITESYQEAKMALEVGRLFYVEKEIMAYDRLGIGRLIYQLPMSLCEMFIREVFGDEVPQILDDEEAMSTISKFFENNLNISETARQLYVHRNTLVYRLERIEKSIGLDIRTFDDAMIFKIATMVLAHIKDSRQGR,not soluble
15,MPVGTAEGIYKRRAIGGTGRPECLPYHFHEMQGALAHRGALDYSALPVQGASWSDLDPLEFERFRRFIRESRGQGDKSLLDLPDVELAKALGAVKANHEVRTVRVLGLLLFGKEEALQRFIPTHEVAFQVLRGTRVEVNDFFRWPLLRTMEELLTRFRAWNHEEEVSFGLMRIGVPNYSERAFREGLANALIHRDYTRLGAVHVQWHEDRIEISNPGGFPEGIHLGNLLVAPPRPRNPLLADAFKRAGVVERTGRGIDIIFEEQLRNGRPAPSYEQSTPESVVLVLPGGEANLNFVRLIVEEGQARRPLRLDELLVLNGLWQERQLTTKEAARLIQKTEATARAVLERLVETGLIEARGTGRGRTYHLSASTYRRLGEEAAYVRLKGFEHQQMEQMVLEYVRAHGRITRREAAELCRIGPYQATRLLKRMVEQGKLTPHGVGKGTWYALRS,soluble

# Source: the DeepSol protein solubility set
